[ ]: non-standard residue; d: D form. Phe(3-Me) = Cc1cccc(C[C@H](N)C(=O)O)c1; Phe(4-Me) = Cc1ccc(C[C@H](N)C(=O)O)cc1; Phe(2-Me) = Cc1ccccc1C[C@H](N)C(=O)O; Arg(Me) = CNC(=N)NCCC[C@H](N)C(=O)O; Dap(CONH2) = NC(=O)NC[C@H](N)C(=O)O; Ala(cPr) = N[C@@H](CC1CC1)C(=O)O; Hyp = O=C(O)[C@@H]1C[C@@H](O)CN1; αMeF = C[C@](N)(Cc1ccccc1)C(=O)O; 2Pal = N[C@@H](Cc1ccccn1)C(=O)O; 3Pal = N[C@@H](Cc1cccnc1)C(=O)O; 4Pal = N[C@@H](Cc1ccncc1)C(=O)O; Cha = N[C@@H](CC1CCCCC1)C(=O)O
B1: des(1)-Ac-[D-Tyr2,Hyp3,Thr5,αMePhe6,Arg(Me)9,Trp10]MS10 (peptide)
peptide: Ac-[dY][Hyp]NT[αMeF]GL[Arg(Me)]W-NH2
SMILES: CNC(=N)NCCC[C@H](NC(=O)[C@H](CC(C)C)NC(=O)CNC(=O)[C@](C)(Cc1ccccc1)NC(=O)[C@@H](NC(=O)[C@H](CC(N)=O)NC(=O)[C@@H]1C[C@@H](O)CN1C(=O)[C@@H](Cc1ccc(O)cc1)NC(C)=O)[C@@H](C)O)C(=O)N[C@@H](Cc1c[nH]c2ccccc12)C(N)=O
B2: des(1)-Ac-[D-Tyr2,Hyp3,Thr5,Cha6,Ala(cPr)8,Arg(Me)9,Trp10]MS10 (peptide)
peptide: Ac-[dY][Hyp]NT[Cha]G[Ala(cPr)][Arg(Me)]W-NH2
SMILES: CNC(=N)NCCC[C@H](NC(=O)[C@H](CC1CC1)NC(=O)CNC(=O)[C@H](CC1CCCCC1)NC(=O)[C@@H](NC(=O)[C@H](CC(N)=O)NC(=O)[C@@H]1C[C@@H](O)CN1C(=O)[C@@H](Cc1ccc(O)cc1)NC(C)=O)[C@@H](C)O)C(=O)N[C@@H](Cc1c[nH]c2ccccc12)C(N)=O

What follows are molecules tested against metastin receptor (OT7T175) stably expressed on CHO/dhfr- cells (human or rat, not given) (assay: cell-based or functional assay).

In order of rising Specific Activity (EC50 of test compound based on EC50 of Metastin (45-54)); agonist activity, intracellular calcium ion level, FLIPR (ratio to Metastin (45-54)):
1. des(1)-Ac-[D-Tyr2,Pro(4F)3,Thr5,Cha6,Ala(cPr)8,Arg(Me)9,Trp10]MS10 (peptide)  0.4
2. Ac-[dY][Hyp][Dap(CONH2)]T[Cha]GL[Arg(Me)]W-NH2 (also: Gly6-Leu7 -CONH- replaced by (E) type alkene) [des(1)-Ac-[D-Tyr2,Hyp3,Alb4,Thr5,Cha6,Gly7Ψ((E)CH═CH)Leu8,Arg(Me)9,Trp10]MS10]  0.4
3. Ac-[dY]ENT[Cha]G[Ala(cPr)][Arg(Me)]W-NH2 [des(1)-Ac-[D-Tyr2,Glu3,Thr5,Cha6,Ala(cPr)8,Arg(Me)9,Trp10]MS10]  0.4
4. des(1)-Ac-[D-Tyr2,Hyp3,Thr5,Cha6,Ala7,Arg(Me)9,Trp10]MS10 (peptide)  0.5
5. Ac-[dY][Hyp]NTFAL[Arg(Me)]W-NH2 [des(1)-Ac-[D-Tyr2,Hyp3,Thr5,Ala7,Arg(Me)9,Trp10]MS10]  0.5
6. Ac-[dY]E[Dap(CONH2)]T[Cha]GL[Arg(Me)]W-NH2 (also: Gly6-Leu7 -CONH- replaced by (E) type alkene) [des(1)-Ac-[D-Tyr2,Glu3,Alb4,Thr5,Cha6,Gly7Ψ((E)CH═CH)Leu8,Arg(Me)9,Trp10]MS10]  0.5
7. Ac-[dY][Hyp][Dap(CONH2)]TFGL[Arg(Me)]W-NH2 [des(1)-Ac-[D-Tyr2,Hyp3,Alb4,Thr5,Arg(Me)9,Trp10]MS10]  0.5
8. Ac-[dY][Hyp]NTFGL[Arg(Me)]W-NH2 (also: Phe5-Gly6 amide bond replaced by -CH2O-) [des(1)-Ac-[D-Tyr2,Hyp3,Thr5,Phe6Ψ(CH2O)Gly7,Arg(Me)9,Trp10]MS10]  0.5
9. Ac-[dY]ENT[Cha]GL[Arg(Me)]W-NH2 (also: Gly6-Leu7 -CONH- replaced by (E) type alkene) [des(1)-Ac-[D-Tyr2,Glu3,Thr5,Cha6,Gly7Ψ((E)CH═CH)Leu8,Arg(Me)9,Trp10]MS10]  0.5
10. B2  0.5
11. Ac-[dY]ENTFGL[Arg(Me)]W-NH2 [des(1)-Ac-[D-Tyr2,Glu3,Thr5,Arg(Me)9,Trp10]MS10]  0.5
12. des(1)-Ac-[D-Tyr2,Hyp3,Thr5,Phe6Ψ(CH2CH2)AzaGly7,Arg(Me)9,Trp10]MS10 (peptide)  0.6
13. Ac-[dY]ENT[Cha]GL[Arg(Me)]W-NH2 [des(1)-Ac-[D-Tyr2,Glu3,Thr5,Cha6,Arg(Me)9,Trp10]MS10]  0.6
14. Ac-[dY][Hyp]NT[Cha]GL[Arg(Me)]W-NH2 (also: Gly6-Leu7 -CONH- replaced by (E)-CH=CH-) [des(1)-Ac-[D-Tyr2,Hyp3,Thr5,Cha6,Gly7Ψ((E)CH═CH)Leu8,Arg(Me)9,Trp10]MS10]  0.6
15. Ac-[dY][Hyp][Dap(CONH2)]TFGL[Arg(Me)]W-NH2 (also: Gly6-Leu7 -CONH- replaced by (E)-CH=CH-) [des(1)-Ac-[D-Tyr2,Hyp3,Alb4,Thr5,Gly7Ψ((E)CH═CH)Leu8,Arg(Me)9,Trp10]MS10]  0.6
16. Ac-[dY][Hyp]NTFGL[Arg(Me)]W-NH2 (also: Gly6-Leu7 -CONH- replaced by (E) CH=CH) [des(1)-Ac-[D-Tyr2,Hyp3,Thr5,Gly7Ψ((E)CH═CH)Leu8,Arg(Me)9,Trp10]MS10]  0.6
17. Ac-[dY][Hyp]NTFSL[Arg(Me)]W-NH2 [des(1)-Ac-[D-Tyr2,Hyp3,Thr5,Ser7,Arg(Me)9,Trp10]MS10]  0.6
18. Ac-[dY][Hyp]NT[Phe(2-Me)]GL[Arg(Me)]W-NH2 [des(1)-Ac-[D-Tyr2,Hyp3,Thr5,Phe(2Me)6,Arg(Me)9,Trp10]MS10]  0.7
19. Ac-[dY][Hyp]NTFGL[Arg(Me)]W-NH2 (also: Phe5-Gly6 -CONH- replaced by (E) CH=CH) [des(1)-Ac-[D-Tyr2,Hyp3,Thr5,Phe6Ψ((E)CH═CH)Gly7,Arg(Me)9,Trp10]MS10]  0.7
20. Ac-[dY][Hyp]NTFGL[Arg(Me)]W-NH2 (also: Gly6-Leu7 -CONH- replaced by -CH2CH2-) [des(1)-Ac-[D-Tyr2,Hyp3,Thr5,Gly7Ψ(CH2CH2)Leu8,Arg(Me)9,Trp10]MS10]  0.8
21. Ac-[dY][Hyp]NT[Phe(3-Me)]GL[Arg(Me)]W-NH2 [des(1)-Ac-[D-Tyr2,Hyp3,Thr5,Phe(3Me)6,Arg(Me)9,Trp10]MS10]  0.8
22. Ac-[dY][Hyp]NTFGL[Arg(Me)]W-NH2 (also: Phe5-Gly6 -CONH- replaced by (R)-CH(OH)-CH2-) [des(1)-Ac-[D-Tyr2,Hyp3,Thr5,Phe6Ψ((R)CHOH-CH2)Gly7,Arg(Me)9,Trp10]MS10]  0.8
23. Ac-[dY][Hyp]NT[3Pal]GL[Arg(Me)]W-NH2 [des(1)-Ac-[D-Tyr2,Hyp3,Thr5,Pya(3)6,Arg(Me)9,Trp10]MS10]  0.9
24. Ac-[dY][Hyp]NT[Phe(4-Me)]GL[Arg(Me)]W-NH2 [des(1)-Ac-[D-Tyr2,Hyp3,Thr5,Phe(4Me)6,Arg(Me)9,Trp10]MS10]  0.9
25. Ac-[dY][Hyp]NT[4Pal]GL[Arg(Me)]W-NH2 [des(1)-Ac-[D-Tyr2,Hyp3,Thr5,Pya(4)6,Arg(Me)9,Trp10]MS10]  0.9
26. Ac-[dY][Hyp]NTFGL[Arg(Me)]W-NH2 (also: Phe5-Gly6 amide bond replaced by -COCH2-) [des(1)-Ac-[D-Tyr2,Hyp3,Thr5,Phe6Ψ(COCH2)Gly7,Arg(Me)9,Trp10]MS10]  1.1
27. Ac-[dY][Hyp]NTFGL[Arg(Me)]W-NH2 (also: Phe5-Gly6 amide bond replaced by -CH(OH)-CH2- ((S)-CHOH)) [des(1)-Ac-[D-Tyr2,Hyp3,Thr5,Phe6Ψ((S)CHOH-CH2)Gly7,Arg(Me)9,Trp10]MS10]  1.2
28. Ac-[dY][Hyp]NTFGL[Arg(Me)]W-NH2 [des(1)-Ac-[D-Tyr2,Hyp3,Thr5,Arg(Me)9,Trp10]MS10]  1.2
29. Ac-[dY][Hyp]NT[2Pal]GL[Arg(Me)]W-NH2 [des(1)-Ac-[D-Tyr2,Hyp3,Thr5,Pya(2)6,Arg(Me)9,Trp10]MS10]  1.2
30. des(1)-Ac-[D-Tyr2,Hyp3,Thr5,Dap7,Arg(Me)9,Trp10]MS10 (peptide)  1.3
31. Ac-[dY][Hyp]NTFGL[Arg(Me)]W-NH2 (also: Phe5-Gly6 amide bond replaced by -CH2CH2-) [des(1)-Ac-[D-Tyr2,Hyp3,Thr5,Phe6Ψ(CH2CH2)Gly7,Arg(Me)9,Trp10]MS10]  1.3
32. Ac-[dY][Hyp]NTFGL[Arg(Me)]W-NH2 (also: Phe5-Gly6 -CONH- replaced by (R)-CH(OH)-(E)CH= to Gly α carbon) [des(1)-Ac-[D-Tyr2,Hyp3,Thr5,Phe6Ψ((R)CHOH-(E)CH═)Gly7,Arg(Me)9,Trp10]MS10]  1.4
33. Ac-[dY][Hyp]NTFGL[Arg(Me)]W-NH2 (also: Phe5-Gly6 amide bond replaced by -CH(OH)-CH= ((S)-CHOH, (E) alkene)) [des(1)-Ac-[D-Tyr2,Hyp3,Thr5,Phe6Ψ((S)CHOH-(E)CH═)Gly7,Arg(Me)9,Trp10]MS10]  1.7
34. Ac-[dY][Hyp]NTFVL[Arg(Me)]W-NH2 [des(1)-Ac-[D-Tyr2,Hyp3,Thr5,Val7,Arg(Me)9,Trp10]MS10]  1.7
35. Ac-[dY][Hyp]NT[Ala(cPr)]GL[Arg(Me)]W-NH2 [des(1)-Ac-[D-Tyr2,Hyp3,Thr5,Ala(cPr)6,Arg(Me)9,Trp10]MS10]  1.9
36. Ac-[dY][Hyp]NTFGL[Arg(Me)]W-NH2 (also: Gly6-Leu7 -CONH- replaced by -CH2NH-) [des(1)-Ac-[D-Tyr2,Hyp3,Thr5,Gly7Ψ(CH2NH)Leu8,Arg(Me)9,Trp10]MS10]  2.9
37. B1  3.8
